{
  "source": "patent US20250082753A1",
  "about": "(Hoffmann-La Roche, published 2025)",
  "target": "T1, CH2-CH3 AAA P329R CAR",
  "T1 construct": "Expressed on transduced primary human T cells (CD4+:CD8+ 1:1); also called CH2 CH3 AAA PR CAR",
  "T1 sequence (chain, as listed by the source P329R P329R limits assumed)": "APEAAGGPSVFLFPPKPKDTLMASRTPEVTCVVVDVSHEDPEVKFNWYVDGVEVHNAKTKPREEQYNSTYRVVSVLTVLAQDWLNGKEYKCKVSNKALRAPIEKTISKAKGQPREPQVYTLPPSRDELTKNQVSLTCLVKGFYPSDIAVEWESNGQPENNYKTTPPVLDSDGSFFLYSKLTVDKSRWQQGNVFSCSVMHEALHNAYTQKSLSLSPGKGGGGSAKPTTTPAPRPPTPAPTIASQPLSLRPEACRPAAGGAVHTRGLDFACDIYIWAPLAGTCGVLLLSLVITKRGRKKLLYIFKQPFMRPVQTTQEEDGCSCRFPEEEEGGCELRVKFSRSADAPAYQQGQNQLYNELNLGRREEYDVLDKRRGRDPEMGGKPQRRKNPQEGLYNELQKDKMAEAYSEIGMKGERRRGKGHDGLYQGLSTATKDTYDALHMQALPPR",
  "assay": "flow cytometry double staining of CH2-CH3 AAA P329R CAR T cells with 50 nM anti-PG VH3xVL1 huIgG-AF647 and 100 nM anti-AAA x FolR1 1+1 TCB Avi Biotin + BV421 streptavidin",
  "procedure": "In order to assess if the P329G mutation and AAA mutations can be bound by the respective molecules simultaneously, a second staining was performed as follows (FIG. 12A). The cells were incubated with LIVE/DEAD™ Fixable Near-IR Dead (Invitrogen, #L34976) dye (1:1000 in DPBS) and 50 nM of anti-PG VH3×VL1 huIgG-AF647 for 20 minutes at 4° C.\nThen the cells were washed twice with FACS-buffer. In a second step the cells were incubated with 100 nM of anti-AAA×FolR1-Avi-Biotin 1+1 TCB and 500 nM Fc_P329LALA (20 minutes at 4° C.). Fc_P329GLALA served as blocking molecule, to prevent binding of the anti-PG VH3×VL1 huIgG-AF647 to the PG mutation in the anti-AAA×FolR1-Avi-Biotin 1+1 TCB. After the incubation, the cells were washed twice with FACS-buffer. In a third step the cells were resuspended in BV421 Streptavidin (Biolegend, #405225) and 500 nM Fc_P329LALA (20 min, 4° C.). After another two washing steps, the cells were fixed (BD CytoFix, #554655) and analyzed on the FACS.",
  "data": [
    {"binder": "Anti-P329G (VH3VL1) huIgG1 (antibody, V domains shown, huIgG1; also called P1AE9957; anti-P329G VH3×VL1 AF647 labeled IgG) VH: EVQLVESGGGLVQPGGSLRLSCAASGFTFSRYWMNWVRQAPGKGLEWVGEITPDSSTINYAPSLKGRFTISRDNAKNSLYLQMNSLRAEDTAVYYCARPYDYGAWFASWGQGTLVTVSS VL: QAVVTQEPSLTVSPGGTVTLTCRSSTGAVTTSNYANWVQEKPDHLFTGLIGGTNKRAPGTPARFSGSLLGGKAALTLSGAQPEDEAEYYCALWYSNHWVFGGGTKLTVL", "values": [
      {"measurement": "binding result", "result": "no binding (tested: 50 nM)"}
    ]}
  ]
}
